The values that follow are results of earlier work, collected in article PMC5724930.

In series [1] the target is proPanD (Escherichia coli) (UniProt P0A790).
The target is the same in series [2]. This is another data set of the same source.

Like-named read-outs stand apart in the source and are kept apart here.

proPanD (Escherichia coli), sequence (P0A790 whole entry): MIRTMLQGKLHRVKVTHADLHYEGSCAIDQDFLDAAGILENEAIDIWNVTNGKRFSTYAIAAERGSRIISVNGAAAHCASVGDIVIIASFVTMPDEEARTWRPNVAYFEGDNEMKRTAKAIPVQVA
PanZ, sequence (P37613 whole entry): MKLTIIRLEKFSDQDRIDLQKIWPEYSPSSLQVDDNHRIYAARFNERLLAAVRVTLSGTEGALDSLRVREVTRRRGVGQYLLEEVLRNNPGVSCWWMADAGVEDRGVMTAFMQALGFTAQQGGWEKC

With PanZ (from UniProt P37613), the equilibrium dissociation constant (Kd) was 0.1 µM in series [1] and 4 µM in series [2].

The Kd is the concentration at which binding is half-saturated.
